# How the values were obtained:
# [1] = biological target: JNK1-dc20 (JNK1 with the C-terminal 20 residues truncated) (human) (UniProt P45983); test: fluorescence polarisation; competitive: 50 nM CF-evJIP with JNK1 at ~60–80% complex, titrated with unlabeled competitor; 20 mM Tris pH 8.0, 100 mM NaCl, 0.05% Brij35P, 2 mM TCEP; 384-well plates
# [2] = biological target: pp-p38 (double-phosphorylated, activated p38α) (human) (UniProt Q16539); test: competition in an in vitro kinase assay; 2 nM pp-p38, 2 µM MBP-ATF2 substrate, 3-fold dilution series of peptide from 1 mM; phospho-ATF2 dot blot; Ki = IC50/(1 + S/KM), KM 17.3 µM
# [3] = biological target: CF-evJIP (carboxyfluorescein-labeled reporter docking peptide); test: fluorescence polarisation; direct titration: 50 nM CF-evJIP, JNK1 concentration increased; 20 mM Tris pH 8.0, 100 mM NaCl, 0.05% Brij35P, 2 mM TCEP; 384-well plates
Ki [2] [µM],Substance,other results
,MBP-c-Jun(1–78) K35E (domain or fragment),fold decrease in binding against the wild type [1]: 10 fold
,ATF2(19–100) Q34R/H47R (mutant construct of the FP assay of Fig. 2b) (from UniProt P15336-1 19-100) (domain or fragment),fold stronger binding than the wild type [1]: 100 fold
7.5,SPFENEF peptide (ATF2 83–102) S90N (from UniProt P15336-1 83-102),
,JNK1-dc20 (JNK1 where the C-terminal 20 residues are truncated) (from UniProt P45983 1-364) (enzyme),Kd [3]: 0.47 µM
820,SPFENEF peptide (ATF2 83–102) phospho-S90,
33.6,"SPFENEF peptide (ATF2 83–102), WT",
